Source: patent CN111196850A (BEIJING HUIZHI HEYUAN BIOTECHNOLOGY CO LTD, dated 2020)
Numbering of substitutions follows the chain as printed.

B1: 人源化单克隆抗体1K2/1H3 (antibody, human IgG1, kappa, V domains shown)
VH: EVQLVESGGGLVQPGGSLRLSCAASGFTFSSFGMHWVRQAPGKGLEWVSYISSGSSIIYYADTVKGRFTISRDNAKNSLFLQMNSLRSEDTAVYYCAREPYGYDVYYFDYWGQGTLVTVSS
VL: DIVLTQSPASLAVSLGQRATITCKASQSIDYDGDSYLNWYQQKPGQPPKLLIYAASNKDSGVPARFSGSGSGTDFTLTINPVEAEDFAVYYCQQSNEDPYTFGGGTKVEIKR
notes: Humanized from 1K/1H; expressed in 293F cells
B2: 人源化单克隆抗体1K1/1H1 (antibody, human IgG1, kappa, V domains shown)
VH: B1 VH with L18R, H35N, G42E, S49A, T63S, F80Y, N84T, S88A
VL: B1 VL with L4M, L37M, K58L, N80H, A84P, V89T
notes: as for B1
B3: 人源化单克隆抗体1K3/1H3 (antibody, human IgG1, kappa, V domains shown)
VH: B1 VH
VL: DIVMTQSPASLAVSPGQRATISCKASQSIDYDGDSYMNWYQQKPGQPPKLLIYAASNLDTGIPARFSGSGSGTDFTLTISSVEEEDTATYYCQQSNEDPYTFGGGTKVEIKR
notes: as for B1
B4: 人源化单克隆抗体1K3/1H1 (antibody, human IgG1, kappa, V domains shown)
VH: B1 VH with L18R, H35N, G42E, S49A, T63S, F80Y, N84T, S88A
VL: B3 VL
notes: as for B1
B5: 人源化单克隆抗体1K2/1H1 (antibody, human IgG1, kappa, V domains shown)
VH: B1 VH with L18R, H35N, G42E, S49A, T63S, F80Y, N84T, S88A
VL: B1 VL
notes: as for B1
B6: 人源化单克隆抗体1K1/1H3 (antibody, human IgG1, kappa, V domains shown)
VH: B1 VH
VL: B1 VL with L4M, L37M, K58L, N80H, A84P, V89T
notes: as for B1
B7: 人源化单克隆抗体6K1/3H2 (antibody, human IgG1, kappa, V domains shown)
VH: QVQLVQSGAELKKPGASVKISCKASGFNIKDYYMHWVRQRPEQGLEWIGWIDPENGNTIYAQKFQGRATITADTSTDTAYMELSSLTSEDTAVYYCAREGDGNYLWFAYWGQGTLVTVSS
VL: DIQMTQSPSSLSASVGGKVTITCKASQDINKYIAWYQQKPGKGPKLLIHYTSTLEPGVPSRFSGSGSGRDFTFSISSLQPEDIATYYCLHYDNLLTFGGGTKVEIKR
notes: Humanized from 6K/3H; expressed in 293F cells
B8: 人源化单克隆抗体6K2/3H3 (antibody, human IgG1, kappa, V domains shown)
VH: EVQLVESGAEVVKPGALVKVSCKASGFNIKDYYMHWVRQRPGQGLEWIGWIDPENGNTIYDQKFQGRVSITADTSTNTAYLELSSLTSEDTAVYYCAREGDGNYLWFAYWGQGTLVTVSS
VL: B7 VL with M4L, G17D, T20I, G43A, P44L, P56T, R69T, F71Y, S77N, I105L
notes: as for B7
B9: 人源化单克隆抗体6K3/3H3 (antibody, human IgG1, kappa, V domains shown)
VH: B8 VH
VL: B7 VL with V15L, G17D, Q38H, G43A, R69T, Q79E, V103L
notes: as for B7
B10: 人源化单克隆抗体6K3/3H1 (antibody, human IgG1, kappa, V domains shown)
VH: B7 VH with Q3K, K12V, I20L, E42G, I59M, Q62P, T69S, D77N, E82Q, T87R
VL: B7 VL with V15L, G17D, Q38H, G43A, R69T, Q79E, V103L
notes: as for B7
B11: 人源化单克隆抗体6K2/3H1 (antibody, human IgG1, kappa, V domains shown)
VH: B7 VH with Q3K, K12V, I20L, E42G, I59M, Q62P, T69S, D77N, E82Q, T87R
VL: B7 VL with M4L, G17D, T20I, G43A, P44L, P56T, R69T, F71Y, S77N, I105L
notes: as for B7
B12: 人源化单克隆抗体6K1/3H1 (antibody, human IgG1, kappa, V domains shown)
VH: B7 VH with Q3K, K12V, I20L, E42G, I59M, Q62P, T69S, D77N, E82Q, T87R
VL: B7 VL
notes: as for B7
B13: 人源化单克隆抗体6K3/3H2 (antibody, human IgG1, kappa, V domains shown)
VH: B7 VH
VL: B7 VL with V15L, G17D, Q38H, G43A, R69T, Q79E, V103L
notes: as for B7
B14: 人源化单克隆抗体6K2/3H2 (antibody, human IgG1, kappa, V domains shown)
VH: B7 VH
VL: B7 VL with M4L, G17D, T20I, G43A, P44L, P56T, R69T, F71Y, S77N, I105L
notes: as for B7
B15: 人源化单克隆抗体6K1/3H3 (antibody, human IgG1, kappa, V domains shown)
VH: B8 VH
VL: B7 VL
notes: as for B7
B16: 鼠源TSLP单克隆抗体3A1H2B2E1(1K/1H) (antibody, mouse IgG1, kappa)
heavy: EVKLVESGGGLVQPGGSRKLSCAASGFTFSSFGMHWVRQAPEKGLEWVAYISSGSSIIHYADTVKGRFTISRDNPKNTLFLQMTSLRSEDTAMYYCAREPYGYDVYYFDYWGQGTTITVSSAKTTPPSVYPLAPGSAAQTNSMVTLGCLVKGYFPEPVTVTWNSGSLSSGVHTFPAVLESDLYTLSSSVTVPSSPRPSETVTCNVAHPASSTKVDKKIVPRDCGCKPCICTVPEVSSVFIFPPKPKDVLTITLTPKVTCVVVDISKDDPEVQFSWFVDDVEVHTAQTQPREEQFNSTFRSVSELPIMHQDWLNGKEFKCRVNSAAFPAPIEKTISKTKGRPKAPQVYTIPPPKEQMAKDKVSLTCMITDFFPEDITVEWQWNGQPAENYKNTQPIMNTNGSYFVYSKLNVQKSNWEAGNTFTCSVLHEGLHNHHTEKSLSHSPGK
light: DIVMTQSPASLAVSLGQRATISCKASQSIDYDGDSYMNWYQQKPGQPPKLLIYAASNLDSGIPARFSGSGSGTDFTLNIHPVEEEDAATYYCQQSNEDPYTFGGGTKLEIKRADAAPTVSIFPPSSEQLTSGGASVVCFLNNFYPKDINVKWKIDGSERQNGVLNSWTDQDSKDSTYSMSSTLTLTKDEYERHNSYTCEATHKTSTSPIVKSFNRNEC
notes: also called 鼠源单克隆抗体1K/1H
B17: 鼠源TSLP单克隆抗体7A9E3G10E5(6K/3H) (antibody, mouse IgG1, kappa)
heavy: EVKLVETGAELVRPGALVKLSCKTSGFNIKDYYMHWVKQRPEQGLEWIGWIDPENGNTIYDPKFQGKASITADTSSNTAYLHLSSLTSEDTAVYYCAREGDGNYLWFAYWGQGTLVTVSAAKTTPPSVYPLAPGSAAQTNSMVTLGCLVKGYFPEPVTVTWNSGSLSSGVHTFPAVLESDLYTLSSSVTVPSSPRPSETVTCNVAHPASSTKVDKKIVPRDCGCKPCICTVPEVSSVFIFPPKPKDVLTITLTPKVTCVVVDISKDDPEVQFSWFVDDVEVHTAQTQPREEQFNSTFRSVSELPIMHQDWLNGKEFKCRVNSAAFPAPIEKTISKTKGRPKAPQVYTIPPPKEQMAKDKVSLTCMITDFFPEDITVEWQWNGQPAENYKNTQPIMNTNGSYFVYSKLNVQKSNWEAGNTFTCSVLHEGLHNHHTEKSLSHSPGK
light: DILLTQSPSSLSASLGGKVIITCKASQDINKYIAWYQHKPGKGLRLLIHYTSTLEPGIPSRFSGSGSGRDYSFSISNLEPEDIATYYCLHYDNLLTFGDGTKLELKRADAAPTVSIFPPSSEQLTSGGASVVCFLNNFYPKDINVKWKIDGSERQNGVLNSWTDQDSKDSTYSMSSTLTLTKDEYERHNSYTCEATHKTSTSPIVKSFNRNEC
notes: also called 鼠源单克隆抗体6K/3H
B18: 嵌合抗体6K-3H (antibody, human IgG1, kappa)
heavy: not shown
light: DILLTQSPSSLSASLGGKVIITCKASQDINKYIAWYQHKPGKGLRLLIHYTSTLEPGIPSRFSGSGSGRDYSFSISNLEPEDIATYYCLHYDNLLTFGDGTKLELKRTVAAPSVFIFPPSDEQLKSGTASVVCLLNNFYPREAKVQWKVDNALQSGNSQESVTEQDSKDSTYSLSSTLTLSKADYEKHKLYACEVTHQGLSSPVTKSFNRGEC
B19: 人源化单克隆抗体1K3/1H2 (antibody, human IgG1, kappa, V domains shown)
VH: B1 VH with Q3K, R19K, H35N, S49A, T63S, A75P, F80Y, S88D, L116T
VL: B3 VL

Each binder was assayed against T1, rhTSLP-mFc融合蛋白 (human) (assay: ELISA: rhTSLP-mFc coated, goat anti-human IgG-HRP detection).
T1 construct: Expressed in 293F cells and purified on protein A; also called 人重组TSLP蛋白

Row | binding result | Binder
1 | binds | B1
2 | binds | B2
3 | binds | B3
4 | binds | B4
5 | binds | B5
6 | binds | B6
7 | binds | B7
8 | binds | B8
9 | binds | B9
10 | binds | B10
11 | binds | B11
12 | binds | B12
13 | binds | B13
14 | binds | B14
15 | binds | B15

The binders below were run against T2, 人TSLP (human, UniProt Q969D9 29-159) (assay: BLI (ForteBio Blitz)).
T2 construct: also called hTSLP; 人胸腺基质淋巴细胞生成素

Row | Kd [nM] | koff [s⁻¹] | kon [M⁻¹ s⁻¹] | Binder
16 | 1.75 | 0.000732 | 418000 | B16
17 | 20.1 | 0.00506 | 252000 | B17

These binders were tested against rhTSLP-hFc (human) (assay: competition ELISA: rhTSLP-hFc coated, antibody titrated against 2 μg/ml rhTSLPR-His, anti-His-HRP detection).

Row | IC50 [µg/mL] | Binder
18 | 0.324 | B16
19 | 0.428 | B17

Target: rhTSLP-hFc (human)
Experiment: as above
Remark: another data set of the same source

Row | IC50 [µg/mL] | Binder
20 | 0.609 | B18

These binders were tested against rhTSLP-hFc (human) (assay: cell-based or functional assay).

Row | IC50, 抑制TSLP刺激的293F转染细胞STAT5-荧光素酶活性 [µg/mL] | Binder
21 | 0.26 | B18

Target: rhTSLP-hFc (human)
Experiment: cell-based or functional assay
Remark: another data set of the same source

Row | IC50, 抑制TSLP刺激的293F转染细胞STAT5-荧光素酶活性 [µg/mL] | Binder
22 | 3.22 | B19
23 | 0.182 | B13
